These results are taken from paper PMC12037675, “Design of self-emulsifying oral delivery systems for semaglutide: reverse micelles versus hydrophobic ion pairs” (Drug Delivery and Translational Research, 2024).

In one series the test system is Caco-2 monolayer. The series can be described thus: Caco-2 permeation study. The class given is in vitro ADME, human. The conditions noted are these: Caco-2 on 24-well Transwell, 21 days, apical to basolateral, HBS pH 6.8, SEDDS 0.05% (v/v), 6 h; ELISA; means n = 4. Here is the method: The ability of native semaglutide as well as semaglutide-RM loaded SEDDS and SEDDS containing HIP to permeate the intestinal epithelium was investigated using Caco-2 cells. Caco-2 cell line was seeded on a 24-well Transwell filters plate at a cell density of 1.25 × 10^5 cells/cm^2. Cells were cultivated for 21 days replacing the media every second day. On the day of the experiment, cells were washed twice using sterile HBS buffer pH 6.8. To start the experiment after the equilibration period, the buffer was removed and replaced with 100 µL of either native semaglutide solution in sterile HBS buffer pH 6.8 or semaglutide-RMs loaded SEDDS diluted to a concentration of 0.05% (v/v) with sterile HBS buffer pH 6.8. Sterile HBS buffer (500 µL) was added to basolateral side. At predetermined time points, 100 µL were withdrawn from basolateral chambers and replaced with prewarmed HBS. The amount of semaglutide in the basolateral chamber was measured through ELISA (KRIBIOLISA™ Semaglutide ELISA, Krishgen BioSystems, US). Transepithelial electric resistance (TEER) in a range of 1200–3300 ohm/cm^2 were measured ensuring integrity of cell monolayers (Evom2, World Precision Instrument Inc., USA).

The nature of series [1]: Solubility of (poly)peptides in lipid phases via reverse micelles (dry addition) or HIP. In kind it is physicochemical. Here is the method:
(Poly)peptide loaded RM were prepared utilizing 200 mM of surfactants dissolved within the oily phase (GML/C8 (1:4; m/m), GMCC/C8 (1:4; m/m) and GMCC/GML (1:4; m/m)) in order to guarantee formation of reverse micelles. Loaded reverse micelles were prepared by the addition of semaglutide to surfactant-oil solutions (200 mM ELA or 200 mM DOC) resulting in a final concentration of 50 mg/mL. The mixtures were vortexed and treated with ultrasound for 30 min before incubation at 1200 rpm at room temperature (RT). Formation of reverse micelles by dry addition method, describing the direct addition of the API in powdered form to lipophilic solvents without use of any additional solvents, was investigated for semaglutide and three further (poly)peptides for comparison. In that regard, semaglutide with a molecular weight of 4.1 kDa was compared to colistin representing the smallest investigated peptide (1.1 kDa). In addition, two larger polypeptides, lysozyme (LYS, 14.4 kDa) and bovine serum albumin (BSA, 66.4 kDa) were investigated. At predetermined time points the dissolved (poly)peptide in supernatant was quantified by HPLC after centrifugation at 12,045 RCF for 10 min.

For series [2] the following is noted: cited from earlier work.
Series [3] is described as follows: Hydrophobic ion pairing with ethyl lauroyl arginate: precipitation efficiency. The class given is physicochemical. Particulars: 1:1 charge ratio (peptide:surfactant), peptide in 0.001 M NaOH, 2 h, 400 rpm, ambient temperature; mean ± SD. The procedure: Hydrophobic ion pairs were formed in order to increase lipophilicity of semaglutide according to previous studies. The peptide was dissolved in 0.001 M NaOH in a concentration of 10 mg/ml to obtain a negative net charge. Ethyl lauroyl arginate, as a cationic counter ion was dissolved in demineralized water. Equal amounts (500 µL: 500 µL) of peptide and surfactant solution were combined corresponding to a charge ratio of 1:1 (peptide:surfactant). Samples were agitated at 400 rpm for 2 h on a thermomixer (Eppendorf, Austria) at ambient temperature. Precipitates were separated from the solution by centrifugation at 12,045 RCF for 10 min (Minispin, Eppendorf, Austria). Precipitation efficiency was determined according to the following equation:1 [drawing 1]

A further series in a line: log D lipid phase/water. The class given is physicochemical. Here is the method: Retention of drug within lipid phase after emulsification is crucial for the active ingredient to reach the absorption membrane in intact form. Thus, high log Dlipid phase/water values are substantial for lipophilic complexes of semaglutide. In brief, 200 µL of peptide loaded RM or HIP complexes corresponding to 2 mg of semaglutide in the lipid phases GML/C8 (1:4; m/m), […] were underlaid with 200 µL of demineralized water and incubated at 300 rpm on a thermomixer for 24 h. In the following samples were centrifuged at 12,045 RCF for 10 min and 100 µL aliquots from both phases were withdrawn and the amount of peptide was quantified by HPLC. The distribution coefficient was calculated according to Eq. 3:3 [drawing 5]
where [drawing 6] corresponds to peptide concentration in the lipophilic phase after incubation and [drawing 7] to peptide concentration in the water phase after incubation. Log Dlipid phase/water values for reference (poly)peptides were determined in the same manner.

In the case of `CC[C@H](C)[C@H](NC(=O)[C@H](Cc1ccccc1)NC(=O)[C@H](CCC(=O)O)NC(=O)[C@H](CCCCNC(=O)COCCOCCNC(=O)COCCOCCNC(=O)CC[C@H](NC(=O)CCCCCCCCCCCCCCCCC(=O)O)C(=O)O)NC(=O)[C@H](C)NC(=O)[C@H](C)NC(=O)[C@H](CCC(N)=O)NC(=O)CNC(=O)[C@H](CCC(=O)O)NC(=O)[C@H](CC(C)C)NC(=O)[C@H](Cc1ccc(O)cc1)NC(=O)[C@H](CO)NC(=O)[C@H](CO)NC(=O)[C@@H](NC(=O)[C@H](CC(=O)O)NC(=O)[C@H](CO)NC(=O)[C@@H](NC(=O)[C@H](Cc1ccccc1)NC(=O)[C@@H](NC(=O)CNC(=O)[C@H](CCC(=O)O)NC(=O)C(C)(C)NC(=O)[C@@H](N)Cc1cnc[nH]1)[C@@H](C)O)[C@@H](C)O)C(C)C)C(=O)N[C@@H](C)C(=O)N[C@@H](Cc1c[nH]c2ccccc12)C(=O)N[C@@H](CC(C)C)C(=O)N[C@H](C(=O)N[C@@H](CCCNC(=N)N)C(=O)NCC(=O)N[C@@H](CCCNC(=N)N)C(=O)NCC(=O)O)C(C)C` [semaglutide], the “Apparent permeability coefficient (Papp)” value in the series with Caco-2 monolayer was “significantly lower Papp value”. For the same compound, the “Maximum solubility within reverse micelles” value in series [1] (after 48 h to 72 h, dry addition, 200 mM ELA or DOC, 50 mg/mL added, RT, HPLC, means n ≥ 3) was ~100%. Further, the “Solubility in RM in comparison to HIP” value in series [1] (best performing lipid phase glycerol monocaprylocaprate:caprylic acid 1:4 (m/m)) is “at least 2 fold”.

Regarding “bovine serum albumin [66.4 kDa reference polypeptide]”, the “Solubility within reverse micelles” value in series [1] (even after prolonged incubation time, dry addition, 200 mM surfactant, RT, HPLC) is on record as “below 1 mg/mL”. Also, the “Isoelectric point (IEP)” value in series [2] is 5.0. Moreover, the “Precipitation efficiency of HIP with ethyl lauroyl arginate” value in series [3] stood at 39.1 ± 2.2%.

As to colistin [1.1 kDa reference peptide], the “Change in lipophilicity (log D lipid phase/water) in RM” value is “enhanced lipophilicity” in the series “log D lipid phase/water” (RM formed with docusate) and “almost no increase in lipophilicity” in the series “log D lipid phase/water” (RM formed with ethyl lauroyl arginate). Besides, in series [2], the “Isoelectric point (IEP)” value is 5.0.

Turning to “lysozyme [14.4 kDa reference polypeptide]”, the “Improvement in lipophilicity in RM compared to the native peptide” value in the series “log D lipid phase/water” (log D lipid phase/water, RM) is recorded as “up to 600 fold”. Also, in series [1] (reverse micelles, dry addition, pronounced increase only after 72 h), the “Solubility in RM, times lower compared to semaglutide” value is on record as “about 10 times”. In addition, in series [2], the “Isoelectric point (IEP)” value is 11.0. Further, in series [3], the “Precipitation efficiency of HIP with ethyl lauroyl arginate” value was determined as 0.0 ± 1.7%.
